Test results from publication PMC3946817 (Journal of molecular biology, 2013).

Biological target: the molecule itself
Assay: ThT fluorescence + AFM

Row | Protein | binding result
1 | VANAFIICGTLYTVSSY [peptide P3 (V426ANAFIICGTLYTVSSY) of myoc-OLF] | binds
2 | GAVVYSGSLYFQ [peptide P1 (G326AVVYSGSLYFQ) of myoc-OLF] | binds
